Results: patent publication US20240409586A1, “CYCLIC POLYPEPTIDE CARRIER FOR EFFICIENT DELIVERY OF NUCLEIC ACID, AND VARIANTS THEREOF” (SUZHOU HEALIRNA BIOTECHNOLOGY CO., LTD., priority 2022, published 2024)
Bridge positions count the residues as written; N and C are the ends. Ends that are not written are not given here.

How the values were obtained:
[1] = Dynamic light scattering of particles formed by cyclic peptide samples with siRNA; type: physicochemical; details: cyclic peptide/RNA mass ratio 4:1, DLS; for Zeta potential: in mV (unit assumed)
Method: Utilizing the Malvern Zetasizer Nano ZS (Malvern Nano Particle Sizing Instrument), the particle size (Size), polydispersity index (PDI), and zeta potential (Zeta P) of the particles formed after samples 1-9 encapsulate siRNA at a cyclic peptide/RNA mass ratio of 4:1 were measured by dynamic light scattering (DLS).

siRNA = experiment: Agarose gel electrophoresis of cyclic peptide/siRNA formulations (encapsulation); type: physicochemical; details: mass ratio of 4:1 of cyclic peptide/siRNA
Method: a. Weigh out 0.5 g of agarose powder and pour it into a conical flask, then add 50 mL of 1×TAE electrophoresis buffer into the flask. Dissolve it completely under heating conditions.
b. After cooling to 65° C., add 5 μL of ethidium bromide, swiftly pour into the gel casting tray, insert the comb, and let it stand at room temperature for 0.5-1 hour until the gel solidifies.
c. Next, remove the comb, pour 1×TAE electrophoresis buffer into the well to submerge the gel.
d. Prepare nine formulations of cyclic peptides with siRNA, using samples 1-9 at mass ratios of 1-4 of sample/siRNA. Mix 2 μL of 6× loading dye with 10 μL of samples, load 10 μL into the wells, and concurrently load 10 μL of DNA Marker and bare siRNA into the wells as controls.
e. Subsequently, run the electrophoresis at […] for 45 minutes, turn off the power supply, remove the gel, and observe and record the electrophoresis image with a UV gel imaging system.

[2] = Dynamic light scattering of cyclic peptide/siRNA and cyclic peptide/lipid/siRNA formulations; type: physicochemical; details: cyclic peptide/RNA 3:1; before and after binding with lipids (DSPC/cholesterol/RNA 2.4/3.1/1), DLS
Description: Sample 5 and 8 were selected and initially mixed in a microfluidic channel at a mass ratio of 3:1 cyclic peptide/RNA to form a particle solution, which was then left to stabilize.
The mass ratio of distearoylphosphatidylcholine (DSPC)/cholesterol/RNA was set at 2.4/3.1/1. DSPC and cholesterol were weighed and dissolved in a certain volume of ethanol solution.
The cyclic peptide/siRNA aqueous solution was mixed with the lipid ethanol solution through a microfluidic channel to form composite particles again, where the final concentration of ethanol was 25%. Dialysis was used to remove the ethanol, and the final lipid/cyclic peptide/nucleic acid composite particles were collected.
Using the Malvern Zetasizer Nano ZS, the particle size and polydispersity index (PDI) before and after binding with lipids (5-L and 8-L) were measured for sample 5 and 8 using dynamic light scattering.

293T cells = experiment: EGFP mRNA transfection, fluorescence microscopy; type: cell-based, human; details: 24 hours, S5/mRNA mass ratios 10:1, 12.5:1, 15:1
Description: 1. Sample preparation: Sample 5 (S5) was selected and mixed in a microfluidic channel to form a particle solution at different cyclic peptide/mRNA mass ratios (10:1, 12.5:1, 15:1), and then left to stabilize.
2. Control formulation: A lipid nanoparticle (LNP) control at a ratio of 4-(N,N-dimethylamino) butyric acid (dilinoleyl) methyl ester/DSPC/cholesterol/1,2-dimyristoyl-rac-glycerol-3-methoxypolyethylene glycol 2000=50:10:38.5:1.5 was used and mRNA was encapsulated according to the method described in Embodiment 3.
3. Cell plating: 293T cells were plated in a 24-well plate with 9 wells per cell type, each well containing 1 ml of medium and 1×10^5 cells, grown for 12 hours until adherence.
4. Solution preparation: PBS (control); for each group in 3 ml serum-free medium, 3×20 μl=60 μl of prepared sample was added and mixed well, 1 ml per well. Transfection group (lipo2000); in 1.2 ml serum-free medium, add 30 μl of mRNA at a concentration of 0.1 μg/μl and 3 μl×3=9 μl of lipo2000, mix well, let stand for 5-10 min. Cells were washed, transfection reagent was added at 400 μl per well, topped up with 600 μl DMEM complete medium. […]
5. Photo capture: Fluorescence photo: exposure time 600 ms, exposure magnification 14, exposure brightness +1; white light photo: exposure time 10 ms, exposure magnification 1, exposure brightness +1.

Substance | Polydispersity index [1] | Size [1] | Zeta potential [1] | encapsulation of siRNA (agarose gel electrophoresis) (siRNA) | PDI [2] | Size [2] | green fluorescent protein expression intensity versus control LNP group (293T cells)
Ala-Ala-Leu-Ala-Ala-Leu-Ala-Ala-Leu-Cys-Lys-Lys-Lys-Lys-Lys-Cys-Leu-Ala-Ala-Leu-Ala-Ala-Leu-Ala-Ala (AALAALAALCKKKKKCLAALAALAA; disulfide 10-16 (inferred)) [Sample 1] | 0.254 | 159.6 nm | 7.09 |  |  |  | 
Arg-Asp-Gly-Lys-Lys-Lys-Leu-Lys-Lys-Lys-Leu-Cys-Gln-Leu-Ile-Lys-Gln-Leu-Ile-Lys-Gln-Leu-Ile-Lys-Gln-Leu-Ile-Lys-Ile-Leu-Gln-Cys-Leu-Lys-Lys-Lys-Leu-Lys-Lys-Lys-Gly-Asp-Arg (RDGKKKLKKKLCQLIKQLIKQLIKQLIKILQCLKKKLKKKGDR; disulfide 12-32 (inferred)) [Sample 8] | 0.143 | 29.92 nm | 16.5 | encapsulate siRNA effectively | 0.15 | 31.85 nm | 
Arg-Asp-Gly-Lys-Val-Gln-Leu-Lys-Val-Gln-Leu-Cys-Gln-Lys-Lys-Lys-Gln-Lys-Lys-Lys-Gln-Lys-Lys-Lys-Gln-Lys-Lys-Lys-Lys-Lys-Gln-Cys-Leu-Gln-Val-Lys-Leu-Gln-Val-Lys-Gly-Asp-Arg (RDGKVQLKVQLCQKKKQKKKQKKKQKKKKKQCLQVKLQVKGDR; disulfide 12-32 (inferred)) [Sample 9] | 0.169 | 111.3 nm | 23.0 | encapsulate siRNA effectively |  |  | 
KKMLKKMLCQKKKKKQCLMKKLMKK (cysteine pairing not given here) [Sample 2] | 0.326 | 211.9 nm | 34.1 |  |  |  | 
Lys-Ala-Met-Leu-Lys-Ala-Met-Leu-Lys-Ala-Met-Leu-Cys-Lys-Lys-Lys-Lys-Lys-Lys-Lys-Lys-Lys-Lys-Lys-Lys-Lys-Lys-Lys-Cys-Leu-Met-Ala-Lys-Leu-Met-Ala-Lys-Leu-Met-Ala-Lys (KAMLKAMLKAMLCKKKKKKKKKKKKKKKCLMAKLMAKLMAK; disulfide 13-29 (inferred)) [Sample 7] | 0.139 | 145.1 nm | 26.3 | encapsulate siRNA effectively |  |  | 
Lys-Gln-Val-Leu-Lys-Gln-Val-Leu-Cys-Gln-Lys-Lys-Lys-Gln-Lys-Lys-Lys-Gln-Lys-Lys-Lys-Gln-Lys-Lys-Lys-Lys-Lys-Gln-Cys-Leu-Val-Gln-Lys-Leu-Val-Gln-Lys (KQVLKQVLCQKKKQKKKQKKKQKKKKKQCLVQKLVQK; disulfide 9-29 (inferred)) [Sample 6] | 0.355 | 32.58 nm | 21.2 |  |  |  | 
Lys-Leu-Leu-Lys-Leu-Leu-Lys-Leu-Leu-Lys-Leu-Leu-Cys-Lys-Lys-Lys-Lys-Lys-Cys-Leu-Leu-Lys-Leu-Leu-Lys-Leu-Leu-Lys-Leu-Leu-Lys (KLLKLLKLLKLLCKKKKKCLLKLLKLLKLLK; disulfide 13-19 (inferred)) [Sample 5] | 0.133 | 81.02 nm |  | encapsulate siRNA effectively | 0.176 | 60.17 nm | more pronounced green fluorescent protein compared to the control LNP group
Lys-Lys-Leu-Lys-Lys-Leu-Cys-Lys-Lys-Lys-Lys-Lys-Lys-Lys-Lys-Lys-Lys-Lys-Lys-Lys-Lys-Cys-Leu-Lys-Lys-Leu-Lys-Lys (KKLKKLCKKKKKKKKKKKKKKCLKKLKK; disulfide 7-22 (inferred)) [Sample 3] | 0.065 | 299.1 nm | 21.3 |  |  |  | 
Lys-Lys-Leu-Lys-Lys-Leu-Lys-Lys-Leu-Lys-Lys-Leu-Cys-Ala-Phe-Lys-Ala-Phe-Lys-Ala-Phe-Lys-Ala-Phe-Lys-Phe-Ala-Cys (KKLKKLKKLKKLCAFKAFKAFKAFKFAC; disulfide 13-28 (inferred)) [Sample 4] | 0.542 | 264.5 nm | 18.6 | poor encapsulation effects |  |  | 
